B1: ARL6IP1 (parent)
chain: YLDPSVLSGVSCFVMFLCLADYLV
B2: MIA2 (parent)
chain: SVIEPVQESSFRSRKIAVEDENDL

Variants of: B1
Test: protein stability index of a GFP-peptide fusion (GPS, HEK-293T) (PSI 1-6); higher = more stable
Conditions: c terminus: a fixed tail appended
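Note: lentivirally expressed fusions sorted by FACS into six bins by GFP to DsRed ratio, PSI derived from sequencing read proportions per bin multiplied by bin number.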

Protein stability index, by site and new letter:
M15: R 2.59; W 2.93; V 2.38; K 3.66; N 2.88; I 4.76; T 3.04; L 2.76; F 2.3; H 3.49; S 2.79; C 3.3; G 4.04; D 2.69
S8: M 2.26; N 3.35; I 2.96; T 2.79; G 3.79; V 3.82; R 2.95; L 3.77; H 3.58
Y22: Q 3.52; L 1.58; N 3.07; P 2.87; I 2.44; H 2.31; V 2.14; W 3.48; C 3.08; S 3.94; K 3.93
L19: R 2.38; N 2.57; K 2.81; F 2.56; A 2.42; T 2.74; S 3.89; Q 2.06; W 1.73; D 2.98; Y 1.85; H 3.03; E 3.85; M 2.06; C 4.14; P 2.1
F13: C 2.92; D 2.64; A 3.86; T 4.33; N 2.42; Y 3.73; K 2.38; Q 3.58; W 3.83; I 2.81
A20: Y 3.24; C 3.26; K 3.71; H 2.64; V 1.63; F 2.87; I 1.85; N 3.34; W 2.47; T 4.15
G9: L 3.4; T 3.03; A 3.74; Y 2.81; H 3.27; F 3.27; K 2.49; R 2.5; V 3.3; N 4.26; S 2.12; P 2.66; Q 3.72; E 2.77
V14: E 2.54; W 2.15; A 2.62; R 1.65; T 2.04; S 2.83; P 3.67; L 2.1; F 2.09; K 1.98; G 2.85; M 3.79; H 2.06
C12: T 2.24; G 3.53; D 3.35; V 3.66; W 2.26; P 3.54; Q 4.12; S 1.48; L 2.45; F 2.47; Y 2.47; M 2.56; A 3.07
V24: M 3.77; C 3.6; A 2.78; S 2.53; F 2.97; I 3.52; Y 2.16; L 3.97
V10: W 2.21; E 2.67; C 2.61; M 2.44; F 3.19; L 2.97; T 1.56; P 3.06; D 2.93; N 3.52; A 3.22; H 2.26; I 3.18; S 3.4; Q 2.89; K 2.46; Y 2.38
D21: V 3.96; N 2.7; F 3.29; I 3.5; T 3.76; Y 1.55; H 2.6; K 1.14; G 3.14; Q 2.58; A 2.71
F16: W 2.85; K 1.74; L 2.62; N 2.88; P 2.64; V 3.72; R 3.63; G 2.14; A 1.99
C18: K 2.37; H 2.85; L 3.54; R 2.65; V 2.09; G 2.47; T 3.26; Y 1.96; F 3.35; Q 2.01; A 1.91; N 2.68
S11: G 3.42; V 4.17; P 3.52; C 3.23; H 2.62; E 4.25; F 2.24; Y 3.78
L23: H 2.74; N 3.21; M 2.83; W 2.07; I 4.16; E 4.8; G 2.59; C 3.76; K 3.29; V 3.07; Y 2.27; Q 2.69; P 2.39; T 3.08
L17: T 3.26; W 3.18; H 2.4; S 1.35; D 2.49; R 2.54; V 2.2; K 3.75; G 4.55; M 4.66; F 2.82; A 2.34

Variants of: B2
Test: as above
Conditions: c terminus: a fixed tail appended

Protein stability index, by site and new letter:
I3: F 5.32; K 4.92; C 5.5; G 5.73; V 5.62; A 5.71; S 4.84; Q 4.57; T 5.6; M 5.44; N 5.61; R 5.59; L 5.59; E 5.61; W 5.13; P 5.13; D 5.9; Y 5.42; H 4.67
S1: I 3.96; W 4.46; Y 3.12; G 5.17; H 5.52; Q 5.39; L 4.33; E 5.28; D 5.68; P 5.59; M 4.71; T 5.45; F 2.93; N 5.69; K 5.13; R 5.32; A 5.01; C 5.53; V 4.33
Q7: A 4.21; F 4.46; V 5.28; G 5.13; N 4.82; R 4.92; D 5.25; P 5.49; S 5.46; L 5.29; E 5.25; Y 5.21; T 5.32; C 3.93; W 5.13; K 4.98; M 5.04; H 5.34; I 4.93
V2: M 5.22; K 5.38; C 5.76; Y 5.26; H 5.51; T 5.31; E 5.22; G 5.67; L 5.24; N 5.87; I 4.69; S 5.32; W 5.14; P 5.15; D 5.83; R 5.5; Q 5.82; F 4.42; A 5.31
P5: S 5.03; N 5.01; V 4.95; H 4.98; G 4.65; L 3.56; F 3.31; W 3.49; Q 5.26; A 4.3; K 4.38; D 4.88; I 3.56; E 4.79; R 5.13; T 5.3; M 4.14; C 4.74; Y 3.78
E4: R 5; H 4.44; Q 4.7; C 5.08; G 5.01; W 3.74; L 4.62; I 4.62; M 4.9; V 4.71; P 5.37; S 5.25; F 4.73; A 5.68; N 5.21; K 5.03; D 5.01; Y 4.64; T 5.35
V6: K 5.62; H 5.48; Q 5.37; S 5.27; N 4.92; I 5.34; D 5.65; M 5.46; Y 4.91; T 5.39; A 5.31; G 5.75; R 5.27; W 4.53; C 5.66; F 4.94; L 5.16; P 5.18; E 5.76

Reference: the supplement of paper PMC10567573
